Consider two molecules from US20150266963A1 (ARGEN X B V, published 2015).

B1: recombinant human CD70 (Flag-TNC-CD70) (ligand, UniProt P32970 39-193, looked up)
chain: QRFAQAQQQLPLESLGWDVAELQLNHTGPQQDPRLYWQGGPALGRSFLHGPELDKGQLRIHRDGIYMVHIQVTLAICSSTTASRHHPTTLAVGICSPASRSISLLRLSFHQGCTIASQRLTPLARGDTLCTNLTGTLLPSRNTDETFFGVQWVRP
notes: extracellular domain; Captured by anti-Flag mAb in ELISA; as 'recombinant human CD70' immobilised on Biacore CM5 chips; TNC is for trimerisation; also called recombinant CD70; human recombinant CD70; not shown: Flag tag and TNC trimerisation domain
B2: 27B3 chimeric llama-human mAb (antibody, human IgG1, V domains shown)
VH: EVQLVESGGGLVQPGGSLRLSCAASGFTFSVYYMNWVRQAPGKGLEWVSDINNEGGTTYYADSVKGRFTISRDNAKNTLTLQMNSLKPEDTALYYCVRDAGYSNHVPIFDSWGQGTQVIVAS
VL: QAVVTQEPSLTVSPGGTVTLTCGLKSGSVTSTNFPTWYQQTPGQAPRLLIYNTNTRHSGVPSRFSGSISENKAALTITGAQPEDEAEYFCALFISNPSVEFGGGTQLTVLS
notes: also called SIMPLE antibody 27B3; mAb 27B3

One experiment deals with T1, CD27 (UniProt P26842 21-192, limits assumed).
T1 sequence (looked up): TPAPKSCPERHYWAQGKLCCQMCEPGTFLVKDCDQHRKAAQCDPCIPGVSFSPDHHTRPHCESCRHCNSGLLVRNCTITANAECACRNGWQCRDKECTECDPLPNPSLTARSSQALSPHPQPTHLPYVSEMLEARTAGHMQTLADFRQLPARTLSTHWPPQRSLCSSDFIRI
Description: Biacore; recombinant human CD70 on CM5 chip; CD27 injected. As for the experimental part: (§1) Off-rates of the purified llama-derived anti-CD70 blocking Fabs were determined using the Biacore. Recombinant human CD70 was immobilized on a CM5 Biacore chip. The immobilization was performed in accordance with a method provided by Biacore and by using the NHS/EDC kit (Biacore AB): after activation of the chip, a solution of 50 μg/ml of recombinant CD70 in 10 mM acetate buffer with pH of 5 was prepared and 1 μl of this solution (50ng) was injected resulting in a surface density of approximately 1000 RU.
(§2) Fabs for the CD70 mAbs ARGX-110, MDX2H5 and SGN70 were prepared by […] digestion (SGN70 and MDX69A7 are described elsewhere herein, MDX2H5, also referred to as MDX1411, is described in WO2008/074004 FIGS. 1A and 1B). Fabs, at a concentration of approximately 100-400 μg/ml, were diluted 6-fold in hepes-buffered saline (0.1M Hepes, 1.5M NaCl, 30 mM EDTA, 0.5% v/v surfactant P20). They were injected (30 μl) and passed through the flow cells at a flow rate of 30 μl/min. After binding of the Fab to CD70, the off-rate was monitored for a period of 10 minutes. After the dissociation, the flow cell surfaces were regenerated by injecting 5 μl of 10 mM NaOH. Sometimes multiple injections of NaOH were needed to regenerate the surfaces depending on the affinity of the Fabs. […] Moreover, the off-rate of CD27 for CD70 was determined as well.

Experiment [1] addresses T2, recombinant human CD27 Fc chimera (CD27-Fc) (human, UniProt P26842 21-192).
T2 construct: Bought reagent; also called recombinant CD27-Fc; Fc part of the bought chimera not given
T2 sequence (looked up): T1 sequence (looked up)
Description: Biacore off-rate analysis, CD27 passed over coated CD70. As for the experimental part: as §1, §2

Experiment [2] addresses T3, rhesus recombinant CD70 (FLAG-TNC-rhesus CD70) (rhesus).
T3 construct: also called rhesus Flag-TNC-CD70
The experiment in a line: inhibition ELISA; FLAG-TNC-rhesus CD70; competitor CD27-Fc. From the text:
In this assay, Flag-TNC-CD70 is captured by an anti-Flag mAb and binding of CD27-Fc is detected via a biotinylated anti-CD27 mAb and strep-HRP in the absence or presence of CD70 Fabs (FIGS. 2 and 3) or CD70 mAbs (FIG. 4). In FIG. 2B it can be seen that 27B3, which has an identical VH as 9D1, but contains a somewhat different light chain, seems to block binding of CD27 to CD70 more efficiently, which was in line with the better off rate of this Fab as measured on Biacore (data not shown). Table 3 indicates the blocking potency (expressed as IC50) for the various llama-human chimeric mAbs tested in the CD70 inhibition ELISA. […] FIG. 3 is a composite of an experiment testing llama CD70 Fabs for blocking activity (in the inhibition ELISA, see white bars) and for CD70 binding (binding ELISA, black bars). For the binding ELISA, Flag-TNC-CD70 is captured by an anti-Flag mAb and binding of the Fabs is detected using an anti-myc-HRP mAb, which recognizes the MYC tag fused to the C-terminus of the Fd fragment. For comparison purposes, known monoclonal antibodies to CD70 (SGN70 described in US 2010/0129362 A1, clone 1F6; and MDX69A7 described in WO2008/074004 FIGS. 5A and 5B) were tested in parallel. […] Of interest is clone 59D10, which as Fab has no blocking activity, but when converted into a chimeric IgG was antagonistic (see Table 3). […]

For experiment [3], the target named is T4, human CD70 expressed on the surface of cells (human, UniProt P32970 1-193).
T4 construct: whole, on cells; also called cell surface expressed CD70; CD70 on cells
T4 sequence (looked up): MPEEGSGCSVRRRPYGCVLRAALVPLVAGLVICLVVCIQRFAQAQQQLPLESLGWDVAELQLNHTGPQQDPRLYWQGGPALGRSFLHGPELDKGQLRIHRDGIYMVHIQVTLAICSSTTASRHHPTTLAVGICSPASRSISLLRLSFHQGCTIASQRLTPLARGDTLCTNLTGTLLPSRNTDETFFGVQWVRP
Description: flow cytometry on 786-O cells; anti-human Fc-FITC. As for the experimental part:
Fluorescence of 10,000 cells/condition was measured using a flow cytometer and the median fluorescence was plotted.

Experiment [4] concerns the target T4, human CD70 expressed on the surface of …. Description: cell-based or functional assay.
Experiment [5] has as its target B1. Description: inhibition ELISA; Flag-TNC-CD70 captured by anti-Flag mAb; competitor CD27-Fc. The procedure:
From selected phage transfected into TG1, individual colonies were picked randomly for growth in 96 well plates. After IPTG induction according to standard protocols periplasmic fractions (penis) containing Fabs were prepared. […] In this assay, Flag-TNC-CD70 is captured by an anti-Flag mAb and binding of CD27-Fc is detected via a biotinylated anti-CD27 mAb and strep-HRP in the absence or presence of CD70 Fabs (FIGS. 2 and 3) or CD70 mAbs (FIG. 4). In FIG. 2B it can be seen that 27B3, which has an identical VH as 9D1, but contains a somewhat different light chain, seems to block binding of CD27 to CD70 more efficiently, which was in line with the better off rate of this Fab as measured on Biacore (data not shown). Table 3 indicates the blocking potency (expressed as IC50) for the various llama-human chimeric mAbs tested in the CD70 inhibition ELISA. […] FIG. 3 is a composite of an experiment testing llama CD70 Fabs for blocking activity (in the inhibition ELISA, see white bars) and for CD70 binding (binding ELISA, black bars). For the binding ELISA, Flag-TNC-CD70 is captured by an anti-Flag mAb and binding of the Fabs is detected using an anti-myc-HRP mAb, which recognizes the MYC tag fused to the C-terminus of the Fd fragment. For comparison purposes, known monoclonal antibodies to CD70 (SGN70 described in US 2010/0129362 A1, clone 1F6; and MDX69A7 described in WO2008/074004 FIGS. 5A and 5B) were tested in parallel. […] Of interest is clone 59D10, which as Fab has no blocking activity, but when converted into a chimeric IgG was antagonistic (see Table 3). Amino acid sequences of the VH and VL domains of binding and blocking llama-derived Fab clones are shown elsewhere herein (Tables 6-9).

Experiment [6] has as its target T4, human CD70 expressed on the surface of …. Description: cell-based or functional assay. This is another data set of the same source.
Experiment [7] has the same target. Description: cell-based or functional assay. This is another data set of the same source.
The target of experiment [8] is B1. The experiment in a line: inhibition ELISA; Flag-TNC-CD70 captured by anti-Flag mAb; competitor CD27-Fc. An outline of the steps:
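Flag-TNC-CD70 captured by anti-Flag mAb, then incubated with CD27-Fc with or without titrated Fabs (periplasmic extracts) or chimeric mAbs. Bound CD27-Fc detected via biotinylated anti-CD27 mAb and strep-HRP, and blocking potency expressed as IC50.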
This is another data set of the same source.

Read-outs that look alike come from different tables or passages of the source.

Turning to B1, the koff (in the experiment with CD27; in experiment [1]) was 8e-05 s⁻¹ in each case.
B2: the results for the IC50 in experiment [2], in [5] and in experiment [8] were 0.15 µg/mL, 250 pM and 0.038 µg/mL, respectively. This molecule also displayed an EC50 in [3] of 240 pM. For the same molecule, the “Raji co-culture assay IC50 relative to 27B3” value in experiment [4] was 1 fold of 27B3. Besides, in experiment [6], the “IC50 (ng/ml), IL-8 secretion in Raji / HT1080-CD27 co-culture assay” value was determined as 5 ng/mL. Further, the “IC50, IL-8 secretion in Raji / HT1080-CD27 co-culture assay” value in [7] was 33 pM.
